Experiments:
Type in all cases: biochemical
[1] = in vitro conversion of rebaudioside E to rebaudioside D by recombinant UGT76G1, with or without AtSUS1; details: with or without AtSUS1, 6 hours
Experimental: Codon optimized UGT76G1 cDNA was inserted in a bacterial expression vector, and the recombinant UGT76G1 protein was expressed and purified by affinity chromatography. The purified recombinant UGT76G1 polypeptide was analyzed by SDS-PAGE (molecular weight: 65.4 kD, FIG. 9). The rebaudioside E substrate was incubated with the recombinant UGT76G1, with or without AtSUS1, under conditions similar to those used in the Examples above. The products were analyzed by HPLC. […] Addition of recombinant AtSUS in the reaction enhanced the conversion efficiency in UGT-SUS coupling system.

[2] = enzymatic activity screening of candidate UGT polypeptides for 1,2-19-O-glucose glycosylation activity (in vitro reaction, HPLC); details: stevioside or Reb A as substrate, 30° C.
Experimental: (§1) The purified candidate UGT recombinant polypeptides were assayed for 1,2-19-O-glucose glycosylation activity by using stevioside or Reb A as the substrate (FIGS. 1A-1C). Typically, the recombinant polypeptide (10 μg) was tested in a 200 μl in vitro reaction system. The reaction system contains 50 mM potassium phosphate buffer, pH 7.2, 3 mM MgCl2, 1 mg/ml stevioside or rebaudioside A, 1 mM UDP-glucose. The reaction was performed at 30° C. and terminated by adding 200 μL 1-butanol. The samples were extracted three times with 200 μL 1-butanol. The pooled fraction was dried and dissolved in 70 μL 80% methanol for high-performance liquid chromatography (HPLC) analysis. Stevia extract (Blue California, Calif.), containing 95% stevioside, was used as stevioside substrate. Rebaudioside A (purity 99%) was also supplied by Blue California.
(§2) The UGT catalyzed glycosylation reaction was be coupled to a UDP-glucose generating reaction catalyzed by a sucrose synthase (such as AtSUS1 of SEQ ID NO:9). […] The purified recombinant AtSUS1 polypeptide was analyzed by SDS-PAGE (molecular weight: 106.3 kD, FIG. 7). […]
(§3) HPLC analysis was then performed using a Dionex UPLC ultimate 3000 system (Sunnyvale, Calif.), including a quaternary pump, a temperature controlled column compartment, an auto sampler and a UV absorbance detector. […]

[3] = in vitro conversion of rebaudioside A to rebaudioside D by recombinant HV1 polypeptide, with or without AtSUS1
Experimental: as §1, §2, §3

[4] = in vitro conversion of stevioside by recombinant HV1 polypeptide in UGT-SUS coupling reaction system
Experimental: as §1, with “Stevia extract (Blue California, Calif.), containing 95% stevioside, was used as stevioside substrate. Rebaudioside A (purity 99%) was also supplied by Blue California.” left out
as §2, §3
Accordingly, the catalytic activity of the recombinant HV1 polypeptide for steviol glycoside biosynthesis (e.g., production of rebaudioside D) was further determined in combination with UGT76G1. […] The products were analyzed by HPLC.

[5] = in vitro conversion of Reb E to Reb Z by recombinant HV1 polypeptide and AtSUS1; details: Reb E 0.5 mg/ml, HV1 20 μg and AtSUS1 20 μg, 24 hours
Experimental: An unexpected compound (“Reb Z”) having a HPLC retention time 6.68 minute (see, FIG. 4) that was distinctive from rebaudiosides D and E was produced. This compound represents a novel steviol glycoside, and is termed “rebaudioside Z” (“Reb Z”). To confirm the conversion of Reb E to Reb Z, Reb E substrate (0.5 mg/ml) was incubated with the recombinant HV1 polypeptide (20 μg) and AtSUS1 (20 μg) in a UGT-SUS coupling reaction system ([…]) under conditions similar to those used in the examples above.

Molecule	1,3-13-O-glucose glycosylation activity (Reb D from Reb E) [1]	1,2-19-O-glucose glycosylation activity [2]	conversion of rebaudioside A to rebaudioside D ([3]; HV1 alone without AtSUS1, after 24 hours)	conversion of rebaudioside A to rebaudioside D ([3]; UGT-SUS coupling reaction system (with AtSUS1), 6-24 hours)	production of rebaudioside D from stevioside ([4]; HV1 10 μg in combination with UGT76G1 10 μg and AtSUS1 10 μg)	conversion of stevioside to rebaudioside E ([4]; coupled with AtSUS1, in vitro, 20 hours)	production of Reb Z from Reb E [5]
UGT76G1: recombinant UDP-glycosyltransferase from stevia (SEQ ID NO:11) (protein, listed as Stevia rebaudiana) MENKTETTVRRRRRIILFPVPFQGHINPILQLANVLYSKGFSITIFHTNFNKPKTSNYPHFTFRFILDNDPQDERISNLPTHGPLAGMRIPIINEHGADELRRELELLMLASEEDEEVSCLITDALWYFAQSVADSLNLRRLVLMTSSLFNFHAHVSLPQFDELGYLDPDDKTRLEEQASGFPMLKVKDIKSAYSNWQILKEILGKMIKQTKASSGVIWNSFKELEESELETVIREIPAPSFLIPLPKHLTASSSSLLDHDRTVFQWLDQQPPSSVLYVSFGSTSEVDEKDFLEIARGLVDSKQSFLWVVRPGFVKGSTWVEPLPDGFLGERGRIVKWVPQQEVLAHGAIGAFWTHSGWNSTLESVCEGVPMIFSDFGLDQPLNARYMSDVLKVGVYLENGWERGEIANAIRRVMVDEEGEYIRQNARVLKQKADVSLMKGGSSYESLESLVSYISSL	showed a 1,3-13-O-glucose glycosylation activity						
HV1: recombinant UDP-glycosyltransferase polypeptide (SEQ ID NO:6) derived from Hordeum vulgare subsp. vulgare (protein, Hordeum vulgare) MDGNSSSSPLHVVICPWLALGHLLPCLDIAERLASRGHRVSFVSTPRNIARLPPLRPAVAPLVDFVALPLPHVDGLPEGAESTNDVPYDKFELHRKAFDGLAAPFSEFLRAACAEGAGSRPDWLIVDTFHHWAAAAAVENKVPCVMLLLGAATVIAGFARGVSEHAAAAVGKERPAAEAPSFETERRKLMTTQNASGMTVAERYFLTLMRSDLVAIRSCAEWEPESVAALTTLAGKPVVPLGLLPPSPEGGRGVSKEDAAVRWLDAQPAKSVVYVALGSEVPLRAEQVHELALGLELSGARFLWALRKPTDAPDAAVLPPGFEERTRGRGLVVTGWVPQIGVLAHGAVAAFLTHCGWNSTIEGLLFGHPLIMLPISSDQGPNARLMEGRKVGMQVPRDESDGSFRREDVAATVRAVAVEEDGRRVFTANAKKMQEIVADGACHERCIDGFIQQLRSYKA		showed a 1,2-19-O-glucose glycosylation activity	only partial rebaudioside A was converted	completely converted	rebaudioside D was produced	converted stevioside to rebaudioside E	Reb Z was produced

From US10253344B2, “Recombinant production of steviol glycosides” (Conagen Inc., priority 2013, dated 2019)
